Experimental data: article PMC12881670, “Investigation into ligand selectivity and bias at the formyl peptide receptor family” (The Journal of Pharmacology and Experimental Therapeutics, 2025)
Where no end group is shown, it is not given here. The star is where a group is joined. For = O=C*

Key:
[1] = target: T1, FLAG-tagged mouse Fpr1 (Mm_Fpr1) (mouse, UniProt P33766 1-364)
T1 sequence (looked up): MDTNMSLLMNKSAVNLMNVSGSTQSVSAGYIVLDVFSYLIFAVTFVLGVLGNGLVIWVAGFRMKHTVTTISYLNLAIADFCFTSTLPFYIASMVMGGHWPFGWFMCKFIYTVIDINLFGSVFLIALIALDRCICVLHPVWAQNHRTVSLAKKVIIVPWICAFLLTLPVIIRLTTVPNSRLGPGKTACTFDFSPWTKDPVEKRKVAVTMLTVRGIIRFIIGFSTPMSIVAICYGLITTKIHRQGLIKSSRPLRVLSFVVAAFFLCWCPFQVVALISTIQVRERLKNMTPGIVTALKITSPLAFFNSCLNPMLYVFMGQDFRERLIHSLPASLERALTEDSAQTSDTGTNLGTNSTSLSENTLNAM

[2] = target: T2, FLAG-tagged human FPR1 (Hs_FPR1) (human, UniProt P21462 1-350)
T2 sequence (looked up): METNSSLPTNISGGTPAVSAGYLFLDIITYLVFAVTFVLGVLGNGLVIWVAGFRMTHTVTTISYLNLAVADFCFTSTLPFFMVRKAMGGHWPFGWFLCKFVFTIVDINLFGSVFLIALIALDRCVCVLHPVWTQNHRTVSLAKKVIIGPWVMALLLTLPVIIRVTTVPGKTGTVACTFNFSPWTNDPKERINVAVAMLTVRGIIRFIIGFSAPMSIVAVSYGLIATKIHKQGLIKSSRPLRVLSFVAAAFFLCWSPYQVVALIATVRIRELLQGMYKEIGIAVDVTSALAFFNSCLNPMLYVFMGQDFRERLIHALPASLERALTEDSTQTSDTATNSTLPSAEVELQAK

[3] = target: T3, FLAG-tagged human FPR2 (Hs_FPR2) (human, UniProt P25090 1-351)
T3 sequence (looked up): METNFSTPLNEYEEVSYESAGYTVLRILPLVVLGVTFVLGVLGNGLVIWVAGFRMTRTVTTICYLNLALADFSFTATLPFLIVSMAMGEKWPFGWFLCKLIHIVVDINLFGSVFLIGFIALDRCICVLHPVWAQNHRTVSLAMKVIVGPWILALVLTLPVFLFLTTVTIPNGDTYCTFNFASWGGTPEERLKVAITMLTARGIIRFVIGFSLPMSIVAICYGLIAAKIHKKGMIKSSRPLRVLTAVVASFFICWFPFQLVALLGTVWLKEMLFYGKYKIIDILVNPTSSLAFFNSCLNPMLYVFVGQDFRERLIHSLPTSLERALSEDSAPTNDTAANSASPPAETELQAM

[4] = target: T1, FLAG-tagged mouse Fpr1 (Mm_Fpr1); remark: listed apart in the source
[5] = target: T4, FLAG-tagged mouse Fpr2 (Mm_Fpr2) (mouse, UniProt O88536 1-351)
T4 sequence (looked up): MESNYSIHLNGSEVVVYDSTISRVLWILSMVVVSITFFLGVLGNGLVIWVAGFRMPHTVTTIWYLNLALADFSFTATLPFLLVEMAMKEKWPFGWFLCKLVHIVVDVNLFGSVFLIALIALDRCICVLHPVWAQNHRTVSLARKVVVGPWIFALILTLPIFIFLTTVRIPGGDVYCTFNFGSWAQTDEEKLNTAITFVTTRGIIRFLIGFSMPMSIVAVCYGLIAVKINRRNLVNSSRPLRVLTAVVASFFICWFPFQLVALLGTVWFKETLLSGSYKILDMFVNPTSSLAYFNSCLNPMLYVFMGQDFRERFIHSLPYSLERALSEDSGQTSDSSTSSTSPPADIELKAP

[6] = target: T2, FLAG-tagged human FPR1 (Hs_FPR1); remark: listed apart in the source
[7] = target: T3, FLAG-tagged human FPR2 (Hs_FPR2); remark: listed apart in the source
[8] = target: T2, FLAG-tagged human FPR1 (Hs_FPR1); assay: flow cytometry on cells; competition binding: HEK293 cells stably expressing the receptor, lifted in PBS, on ice 90 min with 10 nM K(5/6-FAM)-WKYMVm and increasing unlabeled ligand; mean fluorescence of 5000 cells as % of that without competitor; One site-Fit logIC50
[9] = target: T4, FLAG-tagged mouse Fpr2 (Mm_Fpr2); remark: listed apart in the source
[10] = target: T5, FLAG-Hs_FPR1 C-terminally fused to Renilla Luciferase 8 (human, UniProt P21462 1-350); assay: cell-based or functional assay
T5 sequence (looked up): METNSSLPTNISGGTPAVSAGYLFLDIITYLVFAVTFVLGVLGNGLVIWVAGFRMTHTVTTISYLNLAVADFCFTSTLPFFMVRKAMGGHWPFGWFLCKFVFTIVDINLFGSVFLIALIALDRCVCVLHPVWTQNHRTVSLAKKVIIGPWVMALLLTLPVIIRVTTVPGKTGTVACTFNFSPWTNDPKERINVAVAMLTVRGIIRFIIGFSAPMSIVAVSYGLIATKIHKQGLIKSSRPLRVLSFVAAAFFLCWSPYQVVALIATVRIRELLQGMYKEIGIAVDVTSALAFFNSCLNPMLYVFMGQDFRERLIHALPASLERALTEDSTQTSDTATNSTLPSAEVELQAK

[11] = target: T6, FLAG-Hs_FPR2 C-terminally fused to Renilla Luciferase 8 (human, UniProt P25090 1-351); assay: cell-based or functional assay
T6 sequence (looked up): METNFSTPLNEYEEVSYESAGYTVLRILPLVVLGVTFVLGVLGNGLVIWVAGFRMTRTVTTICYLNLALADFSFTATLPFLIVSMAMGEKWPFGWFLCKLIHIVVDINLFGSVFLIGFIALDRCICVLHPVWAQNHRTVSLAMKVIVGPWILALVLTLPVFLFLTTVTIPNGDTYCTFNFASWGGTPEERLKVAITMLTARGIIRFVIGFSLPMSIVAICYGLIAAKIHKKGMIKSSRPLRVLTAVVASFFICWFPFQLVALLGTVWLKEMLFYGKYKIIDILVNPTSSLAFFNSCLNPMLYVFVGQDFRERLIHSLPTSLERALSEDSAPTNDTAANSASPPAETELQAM

[12] = target: T7, FLAG-Mm_Fpr1 C-terminally fused to Renilla Luciferase 8 (mouse, UniProt P33766 1-364); assay: cell-based or functional assay
T7 sequence (looked up): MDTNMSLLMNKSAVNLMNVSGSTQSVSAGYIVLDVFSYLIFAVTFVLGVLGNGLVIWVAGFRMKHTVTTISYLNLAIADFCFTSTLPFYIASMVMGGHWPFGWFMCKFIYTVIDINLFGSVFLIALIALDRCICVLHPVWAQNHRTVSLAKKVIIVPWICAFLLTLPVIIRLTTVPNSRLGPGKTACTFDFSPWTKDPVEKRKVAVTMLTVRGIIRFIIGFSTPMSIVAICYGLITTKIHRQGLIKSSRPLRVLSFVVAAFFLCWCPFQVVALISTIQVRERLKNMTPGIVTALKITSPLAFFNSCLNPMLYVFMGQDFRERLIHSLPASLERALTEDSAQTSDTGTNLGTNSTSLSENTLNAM

[13] = target: T8, FLAG-Mm_Fpr2 C-terminally fused to Renilla Luciferase 8 (mouse, UniProt O88536 1-351); assay: cell-based or functional assay
T8 sequence (looked up): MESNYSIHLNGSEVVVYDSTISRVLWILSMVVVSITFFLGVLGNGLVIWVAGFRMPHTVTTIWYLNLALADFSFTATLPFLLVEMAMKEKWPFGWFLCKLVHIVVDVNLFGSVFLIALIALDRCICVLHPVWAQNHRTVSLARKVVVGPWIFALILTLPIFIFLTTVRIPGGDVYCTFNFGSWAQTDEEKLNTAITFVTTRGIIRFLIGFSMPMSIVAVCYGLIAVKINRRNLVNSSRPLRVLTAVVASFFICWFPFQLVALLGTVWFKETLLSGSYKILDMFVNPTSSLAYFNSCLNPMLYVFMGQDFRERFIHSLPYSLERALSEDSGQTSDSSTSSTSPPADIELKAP

[14] = target: T5, FLAG-Hs_FPR1 C-terminally fused to …; assay: cell-based or functional assay; remark: listed apart in the source
[15] = target: T6, FLAG-Hs_FPR2 C-terminally fused to …; assay: cell-based or functional assay; remark: listed apart in the source
[16] = target: T7, FLAG-Mm_Fpr1 C-terminally fused to …; assay: cell-based or functional assay; remark: listed apart in the source
[17] = target: T8, FLAG-Mm_Fpr2 C-terminally fused to …; assay: cell-based or functional assay; remark: listed apart in the source

Molecule | ERK1/2 phosphorylation (Western blot): Emax (% of 1 μM WKYMVm) [1] | ERK1/2 phosphorylation (Western blot): Log EC50 (M) [1] | ERK1/2 phosphorylation (Western blot): Emax (% of 1 μM WKYMVm) [2] | ERK1/2 phosphorylation (Western blot): Log EC50 (M) [2] | ERK1/2 phosphorylation (Western blot): Emax (% of 1 μM WKYMVm) [3] | ERK1/2 phosphorylation (Western blot): Log EC50 (M) [3] | receptor internalization (flow cytometry): Emax (% of 1 μM WKYMVm) [4] | receptor internalization (flow cytometry): Log EC50 (M) [4] | receptor internalization (flow cytometry): Emax (% of 1 μM WKYMVm) [5] | receptor internalization (flow cytometry): Log EC50 (M) [5] | receptor internalization (flow cytometry): Emax (% of 1 μM WKYMVm) [6] | receptor internalization (flow cytometry): Log EC50 (M) [6] | receptor internalization (flow cytometry): Emax (% of 1 μM WKYMVm) [7] | receptor internalization (flow cytometry): Log EC50 (M) [7] | Log IC50 [8] | Max Comp (%) [8] | also measured
fMet-Leu-Phe (fMLF) (peptide) | 72.7% | -5.64 log M | 143% | -8.91 log M | 40.2% | -4.82 log M | 92.5% | -5.35 log M | 54.4% | -3.8 log M | 92.1% | -7.38 log M | 0.343% | -8.95 log M | -6.19 log M | 88% | 
For-MLFK [fMet-Leu-Phe-Lys (fMLFK)] | 140% | -6.07 log M | 112% | -8.16 log M | 74.3% | -5.88 log M | 179% | -5.21 log M | 81.6% | -4.94 log M | 79.3% | -7.79 log M | 99.9% | -4.48 log M | -6.23 log M | 63.3% | ERK1/2 phosphorylation (Western blot): Emax (% of 1 μM WKYMVm) [9]: 176%; ERK1/2 phosphorylation (Western blot): Log EC50 (M) [9]: -5.91 log M; BRET of receptor-RLuc8 with Venus-mGsi: Emax (% of 1 μM WKYMVm) [10]: 104%; BRET of receptor-RLuc8 with Venus-mGsi: Log EC50 (M) [10]: -7.07 log M; BRET of receptor-RLuc8 with Venus-mGsi: Emax (% of 1 μM WKYMVm) [11]: 80.7%; BRET of receptor-RLuc8 with Venus-mGsi: Log EC50 (M) [11]: -4.57 log M; BRET of receptor-RLuc8 with Venus-mGsi: Emax (% of 1 μM WKYMVm) [12]: 62.9%; BRET of receptor-RLuc8 with Venus-mGsi: Log EC50 (M) [12]: -5.02 log M; BRET of receptor-RLuc8 with Venus-mGsi: Emax (% of 1 μM WKYMVm) [13]: 82.7%; BRET of receptor-RLuc8 with Venus-mGsi: Log EC50 (M) [13]: -4.52 log M; BRET of receptor-RLuc8 with Arrestin 3-YFP: Emax (% of 1 μM WKYMVm) [14]: 97.4%; BRET of receptor-RLuc8 with Arrestin 3-YFP: Log EC50 (M) [14]: -7.45 log M; BRET of receptor-RLuc8 with Arrestin 3-YFP: Emax (% of 1 μM WKYMVm) [15]: 92.7%; BRET of receptor-RLuc8 with Arrestin 3-YFP: Log EC50 (M) [15]: -4.44 log M; BRET of receptor-RLuc8 with Arrestin 3-YFP: Emax (% of 1 μM WKYMVm) [16]: 95.2%; BRET of receptor-RLuc8 with Arrestin 3-YFP: Log EC50 (M) [16]: -5.14 log M; BRET of receptor-RLuc8 with Arrestin 3-YFP: Emax (% of 1 μM WKYMVm) [17]: 72.5%; BRET of receptor-RLuc8 with Arrestin 3-YFP: Log EC50 (M) [17]: -4.79 log M
